Measurements reported in US20250304693A1 (HIFIBIO, published 2025).

T1: recombinant human BTLA (human, UniProt Q7Z6A9 31-157, limits assumed)
T1 construct: ELISA antigen; construct not described
T1 sequence (looked up): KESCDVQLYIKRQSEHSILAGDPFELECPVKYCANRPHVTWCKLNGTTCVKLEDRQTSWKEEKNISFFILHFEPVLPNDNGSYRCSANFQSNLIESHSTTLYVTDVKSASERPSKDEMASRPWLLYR

T2: cynomolgus BTLA on cells (cynomolgus, UniProt A0A2K5W7M7 31-289)
T2 construct: whole, on cells; Overexpressed on Expi293 cells; also called cyno BTLA; CynoBTLA
T2 sequence: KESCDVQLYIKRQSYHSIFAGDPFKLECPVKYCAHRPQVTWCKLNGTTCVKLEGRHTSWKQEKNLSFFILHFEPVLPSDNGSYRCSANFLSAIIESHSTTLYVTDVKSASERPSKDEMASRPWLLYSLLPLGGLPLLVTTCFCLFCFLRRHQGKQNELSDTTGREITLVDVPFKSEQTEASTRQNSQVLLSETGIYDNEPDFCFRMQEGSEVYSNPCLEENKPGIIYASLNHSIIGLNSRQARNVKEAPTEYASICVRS


Experiments:
[1] = molecular target: T3, human BTLA (B- and T-lymphocyte attenuator) on cells (human, UniProt Q7Z6A9 31-289); experiment: cell-based or functional assay
recombinant human BTLA = molecular target: T1, recombinant human BTLA; experiment: ELISA on recombinant human BTLA
[2] = molecular target: T3, human BTLA (B- and T-lymphocyte …); experiment: cell-based or functional assay; remark: listed apart in the source
[3] = molecular target: T3, human BTLA (B- and T-lymphocyte …); experiment: FACS competition on HEK293T.hBTLA cells; competitor hrHVEM-His-DL650
Experimental: In FIG. 12A, recombinant HVEM soluble protein was conjugated with DyLight 650 (DL650) fluorophore. HEK293 cells overexpressing hBTLA (HEK293.BTLA) were preincubated with increasing concentrations of selected HFB6-3 humanized variants with cysteine mutants or parental HFB6-3 at 4° C. for 30 minutes and then with DL650-conjugated HVEM for additional 30 minutes. After washing, soluble HVEM remaining associated with BTLA on HEK293.BTLA cells was measured by FACS.

[4] = molecular target: T3, human BTLA (B- and T-lymphocyte …); experiment: FACS on HEK293T.hBTLA cells, AF647 anti-human IgG Fc detection
Experimental: (§1) In FIGS. 11A and 11B, HEK293 overexpressing human BTLA (FIG. 11A) and Expi293 cells overexpressing cynomolgus BTLA (FIG. 11B) were incubated with different concentrations of selected HFB6-3 humanized variants with cysteine mutations. Anti-BTLA antibodies binding to target cells were quantified with an AF647-conjugated anti-human IgG Fc 2nd antibody by FACS. HFB6-3hz24-hG4P-C109A, HFB6-3hz25-hG4P-C109A, HFB6-3hz24-hG4P-C109S and HFB6-3hz25-hG4P-C109S bound to human BTLA and cyno BTLA with single digit nM and sub-nM EC₅₀, similar as parental HFB6-3 (FIGS. 11A and 11B and Table 13).

cynomolgus BTLA on cells = molecular target: T2, cynomolgus BTLA on cells; experiment: FACS on Expi293.cynoBTLA cells, AF647 anti-human IgG Fc detection
Experimental: as §1

Row | Binder | Reporter EC50 [1] [nM] | EC50 (recombinant human BTLA) [nM] | CHO.TCRa.hHVEM/Jurkat.hBTLA.NFAT-luc (EC50 (nM)) [2] [nM] | IC50 [3] [nM] | EC50 [4] [nM] | EC50 (cynomolgus BTLA on cells) [nM]
1 | HFB6-2hz9-hG4P (antibody, V domains shown, Humanized variant of HFB6-2) VH: QVQLVQSGAEVKKPGASVKVSCKASGVNIKDTYMYWVRQAPGQGLEWIGRIDPANGYTRYAQKFQGRATVTADTSTSTVYLELSSLRSEDTAVYYCAVNDGYFEYFDVWGQGTTVTVSS VL: EIVLTQSPGTLSLSPGERATLSCRSSQSLLDSDGKPYLNWLQQKPGQAPRRLIYLVSKLDSGIPDRFSGSGSGTDFTLTISRLEPEDLAVYYCWQDTHFPRTFGQGTKLEIK | 36.7 | 3.29 |  |  |  | 
2 | HFB6-2hz0-hG4P (antibody, V domains shown) VH: QVQLVQSGAEVKKPGSSVKVSCKASGVNIKDTYMYWVRQAPGQGLEWIGRIDPANGYARYAQKFQGRATITADESTSTAYLELSSLRSEDTAVYYCAVNDGYFEYFDVWGQGTTVTVSS VL: EIVLTQSPGTLSLSPGERATLSCRSSQSLLDSDGKPYLNWLQQKPGQAPRRLIYLVSKLDSGIPDRFSGSGSGTDFTLTISRLEPEDLAVYYCWQDTHFPRTFGQGTKLEIK | 47 | 3.21 |  |  |  | 
3 | HFB6-2hz8-hG4P (antibody, V domains shown, Humanized variant of HFB6-2) VH: QVQLVQSGAEVKKPGASVKVSCKASGVNIKDTYMYWVRQAPGQGLEWIGRIDPANGYTRYAQKFQGRVTMTADTSTSTVYMELSSLRSEDTAVYYCAVNDGYFEYFDVWGQGTTVTVSS VL: EIVLTQSPGTLSLSPGERATLSCRSSQSLLDSDGKPYLNWLQQKPGQAPRRLIYLVSKLDSGIPDRFSGSGSGTDFTLTISRLEPEDLAVYYCWQDTHFPRTFGQGTKLEIK | 66.8 | 3.96 |  |  |  | 
4 | HFB6-2hz11-hG4P (antibody, V domains shown, Humanized variant of HFB6-2) VH: QVQLVQSGAEVKKPGSSVKVSCKASGVNIKDTYMYWVRQAPGQGLEWIGRIDPANGYARYAQKFQGRATVTADKSTSTAYLELSSLRSEDTAVYYCAVNDGYFEYFDVWGQGTTVTVSS VL: EIVLTQSPGTLSLSPGERATLSCRSSQSLLDSDGKPYLNWLQQKPGQAPRRLIYLVSKLDSGIPDRFSGSGSGTDFTLTISRLEPEDLAVYYCWQDTHFPRTFGQGTKLEIK | 19.4 | 3.66 |  |  |  | 
5 | HFB6-2hz12-hG4P (antibody, V domains shown, Humanized variant of HFB6-2) VH: EVQLLESGGGLVQPGGSLRLSCAASGVNIKDTYMYWVRQAPGKGLEWIGRIDPANGYTRYADSVKGRFTISADNSKNTLYLQMNSLRAEDTAVYYCAVNDGYFEYFDVWGQGTTVTVSS VL: EIVLTQSPGTLSLSPGERATLSCRSSQSLLDSDGKPYLNWLQQKPGQAPRRLIYLVSKLDSGIPDRFSGSGSGTDFTLTISRLEPEDLAVYYCWQDTHFPRTFGQGTKLEIK | 43.2 | 5.05 |  |  |  | 
6 | HFB6-2hz16-hG4P (antibody, V domains shown, Humanized variant of HFB6-2) VH: QVQLVQSGAEVKKPGASVKVSCKASGVNIKDTYMYWVRQAPGQGLEWIGRIDPANGYTRYAQKFQGRATVTADTSTSTVYLELSSLRSEDTAVYYCAVNDGYFEYFDVWGQGTTVTVSS VL: DIVMTQSPDSLAVSLGERATINCKSSQSLLDSDGKPYLNWLQQKPGQSPKRLIYLVSKLDSGVPDRFSGSGSGTDFTLTISSVQAEDVAVYYCWQDTHFPRTFGQGTKLEIK | 10.8 | 2.39 |  |  |  | 
7 | HFB6-2hz15-hG4P (antibody, V domains shown, Humanized variant of HFB6-2) VH: QVQLVQSGAEVKKPGASVKVSCKASGVNIKDTYMYWVRQAPGQGLEWIGRIDPANGYTRYAQKFQGRVTMTADTSTSTVYMELSSLRSEDTAVYYCAVNDGYFEYFDVWGQGTTVTVSS VL: DIVMTQSPDSLAVSLGERATINCKSSQSLLDSDGKPYLNWLQQKPGQSPKRLIYLVSKLDSGVPDRFSGSGSGTDFTLTISSVQAEDVAVYYCWQDTHFPRTFGQGTKLEIK | 19.6 | 2.74 |  |  |  | 
8 | HFB6-2hz17-hG4P (antibody, V domains shown, Humanized variant of HFB6-2) VH: QVQLVQSGAEVKKPGSSVKVSCKASGVNIKDTYMYWVRQAPGQGLEWIGRIDPANGYARYAQKFQGRATITADESTSTAYLELSSLRSEDTAVYYCAVNDGYFEYFDVWGQGTTVTVSS VL: DIVMTQSPDSLAVSLGERATINCKSSQSLLDSDGKPYLNWLQQKPGQSPKRLIYLVSKLDSGVPDRFSGSGSGTDFTLTISSVQAEDVAVYYCWQDTHFPRTFGQGTKLEIK | 18.2 | 2.4 |  |  |  | 
9 | HFB6-2hz18-hG4P (antibody, V domains shown, Humanized variant of HFB6-2) VH: QVQLVQSGAEVKKPGSSVKVSCKASGVNIKDTYMYWVRQAPGQGLEWIGRIDPANGYARYAQKFQGRATVTADKSTSTAYLELSSLRSEDTAVYYCAVNDGYFEYFDVWGQGTTVTVSS VL: DIVMTQSPDSLAVSLGERATINCKSSQSLLDSDGKPYLNWLQQKPGQSPKRLIYLVSKLDSGVPDRFSGSGSGTDFTLTISSVQAEDVAVYYCWQDTHFPRTFGQGTKLEIK | 10.8 | 2.24 |  |  |  | 
10 | HFB6-2hz19-hG4P (antibody, V domains shown, Humanized variant of HFB6-2) VH: EVQLLESGGGLVQPGGSLRLSCAASGVNIKDTYMYWVRQAPGKGLEWIGRIDPANGYTRYADSVKGRFTISADNSKNTLYLQMNSLRAEDTAVYYCAVNDGYFEYFDVWGQGTTVTVSS VL: DIVMTQSPDSLAVSLGERATINCKSSQSLLDSDGKPYLNWLQQKPGQSPKRLIYLVSKLDSGVPDRFSGSGSGTDFTLTISSVQAEDVAVYYCWQDTHFPRTFGQGTKLEIK | 22.1 | 2.55 |  |  |  | 
11 | HFB6-2hz20-hG4P (antibody, V domains shown, Humanized variant of HFB6-2) VH: QVQLQESGPGLVKPSGTLSLTCAASGVNIKDTYMYWVRQPPGKGLEWIGRIDPANGYTRYNPSFKSRATVSADKSKNQASLKLSSLTAADTAVYYCAVNDGYFEYFDVWGQGTTVTVSS VL: DIVMTQSPDSLAVSLGERATINCKSSQSLLDSDGKPYLNWLQQKPGQSPKRLIYLVSKLDSGVPDRFSGSGSGTDFTLTISSVQAEDVAVYYCWQDTHFPRTFGQGTKLEIK | 9.77 | 2.51 |  |  |  | 
12 | HFB6-3hz24-hG4P-C109A (antibody, V domains shown, Humanized variant of HFB6-3) VH: QVQLQESGPGLVKPSGTLSLTCADSGFNIKDTYIHWVRQPPGKGLEWIGRIDPANGFTRYNPSLKSRVTISSDKSKNQASLKLSSVTAADTAVYYCAREDGYPYYTLDAWGQGTTVTVSS VL: DIVMTQSPDSLALSLGERATINCKSSQSLLDVDGKTYLNWFQQKPGQPPKRLIYLVSKLDSGVPDRFSGSGSGTDFTLTISSVQAEDVAVYYCWQGTHFPRTFGQGTKLEIK |  |  | 13 | 2.64 | 3.27 | 6.89
13 | HFB6-3hz20-hG4P (antibody, V domains shown, Humanized variant of HFB6-3) VH: QVQLQESGPGLVKPSGTLSLTCADSGFNIKDTYIHWVRQPPGKGLEWIGRIDPANGFTRYNPSFKSRATISSDKSKNQASLKLSSVTAADTAVYYCAREDGYPYYTLDCWGQGTTVTVSS VL: DIVMTQSPDSLALSLGERATINCKSSQSLLDVDGKTYLNWFQQKPGQPPKRLIYLVSKLDSGVPDRFSGSGSGTDFTLTISSVQAEDVAVYYCWQGTHFPRTFGQGTKLEIK |  |  |  | 2.91 | 3.84 | 7.38
14 | HFB6-3hz24-hG4P-C109S (antibody, V domains shown, Humanized variant of HFB6-3) VH: QVQLQESGPGLVKPSGTLSLTCADSGFNIKDTYIHWVRQPPGKGLEWIGRIDPANGFTRYNPSLKSRVTISSDKSKNQASLKLSSVTAADTAVYYCAREDGYPYYTLDSWGQGTTVTVSS VL: DIVMTQSPDSLALSLGERATINCKSSQSLLDVDGKTYLNWFQQKPGQPPKRLIYLVSKLDSGVPDRFSGSGSGTDFTLTISSVQAEDVAVYYCWQGTHFPRTFGQGTKLEIK |  |  | 16.6 | 3.22 | 3.6 | 7.83
15 | HFB6-3hz25-hG4P-C109A (antibody, V domains shown, Humanized variant of HFB6-3) VH: QVQLQESGPGLVKPSGTLSLTCADSGFSISDTYIHWVRQPPGKGLEWIGRIDPANGFTRYNPSLKSRVTISSDKSKNQASLKLSSVTAADTAVYYCAREDGYPYYTLDAWGQGTTVTVSS VL: DIVMTQSPDSLALSLGERATINCKSSQSLLDVDGKTYLNWFQQKPGQPPKRLIYLVSKLDSGVPDRFSGSGSGTDFTLTISSVQAEDVAVYYCWQGTHFPRTFGQGTKLEIK |  |  | 10.2 | 2.61 | 3.2 | 9.69
